In paper PMC5617202, “Structural and functional insights into the reaction specificity of catalase-related hydroperoxide lyase: A shift from lyase activity to allene oxide synthase by site-directed mutagenesis” (PLoS ONE, 2017):
Numbering of substitutions follows the chain as printed. Names and notes keep the numbering of the source.

B1: C. imbricata cHPL (catalase-related hydroperoxide lyase domain) (Capnella imbricata; S177L/Y176N) (protein)
chain: MVWKNFGYEIFAEKFGKDELEKRIKDEHTAPPESPLFGSLKLKMKKEKFKILFTLRTTMEGFRRPTHTVATGGLGEITIVSDPKFPEHEFYRAGRKFPARLRHANLKLLDDAGSDARSFSIKFADNDSESPMDIVMNTGEANIFWNTSSFEDFVSSSAGESAAKEYVYKNPYYYYNLIEALRRAPETFAHLYYYSQLTMHFKAKDGKVRYCRYRAIPGDADIKEEEESGRLTEEEQRNVWIRSRHQNEKRPDDYLRKEYVERLGKGPVNYRLQIQIHEASPDDTATIFHAGIMWNKETHPWFDLAKVSIKTPLSPDVLERTSFNIVNQPESLGLLEAKSPEDYNSIGQIRVAVYKWIQHLRKLKVGSLVPTGQN
notes: N-terminal cHPL domain of the HPL-LOX fusion protein, without the LOX domain; cHPL-His4 in pET11a; E. coli BL21(DE3), Ni-NTA; heme protein; monomer 45 kDa plus oligomers 440-670 kDa
B2: C. imbricata cHPL (catalase-related hydroperoxide lyase domain) (Capnella imbricata; F150L) (protein)
chain: B1 chain with F150L, N176Y, L177S
notes: as for B1
B3: C. imbricata cHPL (catalase-related hydroperoxide lyase domain) (Capnella imbricata; I357V) (protein)
chain: B1 chain with N176Y, L177S, I357V
notes: as for B1
B4: C. imbricata cHPL (catalase-related hydroperoxide lyase domain) (Capnella imbricata; R56G) (protein)
chain: B1 chain with R56G, N176Y, L177S
notes: as for B1
B5: C. imbricata cHPL (catalase-related hydroperoxide lyase domain) (Capnella imbricata; P65A) (protein)
chain: B1 chain with P65A, N176Y, L177S
notes: as for B1
B6: C. imbricata cHPL (catalase-related hydroperoxide lyase domain) (Capnella imbricata; E60K/M59L) (protein)
chain: B1 chain with M59L, E60K, N176Y, L177S
notes: as for B1
B7: C. imbricata cAOS (cAOS-H4 domain) (Capnella imbricata) (protein)
chain: MTWKNFGFDIFAERFGKDKLEKRIKDERTPPPDSPVFGGLTLRMKIEKFKTLFTLGTTLKGFRRATHTVGTGGIGEVTVVDDPKFPEHEFFKAGRKLPVRLRHANLKYPDDAGADARSFSIKFSDNDSESPLDIVMNTGEANIFWHTSSLEDFVPVKEGDSAKEYVYKNPYYYYNLVEALRRAPNTFAHLYYYSQVTMHFKAKDGKERYCRYRAIPGDVDIKEEEESGRLTEEEQRNIWTFSRYETEKRPDDYLRKEYVERLKKGPVNYRLQIQIHDVSPNDTATIFHAGILWDKETHPWFDLAKVSITTPMSPDVLERTNFNIVNQPKSLGLLDAKSPEDYNSIGQIRVSVYNWVQHLRKLKLGSLIPAGQN
notes: N-terminal cAOS domain of the AOS-LOX fusion protein, without the LOX domain; cAOS-H4 (His4 tag) in pET11a; E. coli BL21(DE3), Ni-NTA; heme protein; monomer
B8: C. imbricata cAOS (cAOS-H4 domain) (Capnella imbricata; L150F) (protein)
chain: B7 chain with L150F
notes: as for B7

Target: T1, C. imbricata cHPL (catalase-related hydroperoxide lyase domain) (Capnella imbricata, UniProt W8JJ08)
T1 construct: gene AOS-LOXb; N-terminal cHPL domain of the HPL-LOX fusion protein, without the LOX domain; cHPL-His4 in pET11a; E. coli BL21(DE3), Ni-NTA; heme protein; monomer 45 kDa plus oligomers 440-670 kDa
Assay: RP-HPLC radiometric product analysis
Format: biochemical
Conditions: 20 μM [1-14C]-AA-derived 8R-HpETE; labelled compound

T1 sequence (W8JJ08 entry or part of it): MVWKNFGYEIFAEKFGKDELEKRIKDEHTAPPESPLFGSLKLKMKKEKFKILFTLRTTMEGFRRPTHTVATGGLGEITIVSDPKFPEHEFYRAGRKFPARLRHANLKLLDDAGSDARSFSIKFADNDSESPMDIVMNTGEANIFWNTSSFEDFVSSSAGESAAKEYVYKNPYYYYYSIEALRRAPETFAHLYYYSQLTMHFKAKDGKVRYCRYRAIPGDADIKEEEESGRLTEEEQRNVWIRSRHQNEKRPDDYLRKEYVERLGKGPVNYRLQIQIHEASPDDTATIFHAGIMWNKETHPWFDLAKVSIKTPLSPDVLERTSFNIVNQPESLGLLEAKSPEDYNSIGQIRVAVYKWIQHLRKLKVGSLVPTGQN

| Molecule | RP-HPLC radiometric product analysis |
| --- | --- |
| CCCCC/C=C\C/C=C\C=C\[C@@H](C/C=C\CCCC(=O)O)OO [8R-HpETE] | Wt cHPL catalyzes the formation of C8-oxo acid and C12 aldehyde |

Substrate: CCCCC/C=C\C/C=C\C=C\[C@@H](C/C=C\CCCC(=O)O)OO
Assay: purified protein
Format: biochemical, Capnella imbricata
Conditions: 50 mM Tris pH 8.0, 100 mM NaCl, 1 mM CaCl2, 20 °C, 5–50 μM substrate

| Molecule | Km [µM] | kcat [s⁻¹] | kcat/Km [M⁻¹ s⁻¹] |
| --- | --- | --- | --- |
| B1 | 3.9 ± 0.9 | 218 ± 13.8 | 5.6e+07 |
| B2 | 1.8 ± 0.4 | 49.6 ± 1.5 | 2.76e+07 |
| B3 | 5.0 ± 1.0 | 63.9 ± 3.2 | 1.28e+07 |
| B4 | 19.0 ± 4.0 | 304 ± 22.8 | 1.6e+07 |
| B5 | 15.3 ± 2.5 | 40.3 ± 2.5 | 2.6e+06 |
| B6 | 7.3 ± 1.9 | 7.5 ± 0.6 | 1e+06 |
| B7 | 46.6 ± 9.0 | 1840 ± 196 | 3.94e+07 |
| B8 | 6.7 ± 1.0 | 203 ± 8.1 | 3.03e+07 |
